# Assay results published in patent publication US5149780A, “Peptides and antibodies that inhibit integrin-ligand binding” (The Scripps Research Institute, priority 1988, dated 1992).
# How the values were obtained:
# beta subunit (GPIIIa) = molecular target: T1, beta subunit (GPIIIa) (Homo sapiens, UniProt P05106+P08514); test: Chemical crosslinking of 125I-Fn-7 to platelets with BS3, SDS-PAGE and autoradiography; type: binding; details: thrombin-stimulated platelets, 20 μM peptide, 45 min at 22° C., BS3 0.2 mM
# T1 construct: endogenous in cells; host or cells: human platelets (thrombin-stimulated or nonstimulated), gel-filtered from fresh blood
# Experimental: FIG. 2 illustrates the results of the crosslinking of an RGD peptide to discrete sites in the beta subunit (GPIIIa) of an Integrin adhesion receptor. The ^125 I-labeled RGD peptide, Fn-7 (20 μM), was bound to platelet (6×10^8 /ml) for 45 min at 22° C., and crosslinked with BS^3 (0.2 mM). The fragmentation patterns after proteolysis were analyzed by SDS-PAGE [Laemmli, Nature. 227:680 (1970)] and autoradiography. […] Lanes 2-7, GPIIIa:Fn-7 bands were excised from gels, subjected to proteolysis and then analyzed by SDS-PAGE (15% gels, reducing conditions). For lanes 2-5, GPIIIA:Fn-7 bands were excised and digestions with V-8 protease were performed within the gel slices as described in Cleveland et al., J. Biol. Chem. 252:1102 (1977).
# Platelets were isolated from fresh human blood collected into acid/citrate/dextrose by differential centrifugation followed by gel filtration on Sepharose 2B in divalent ion-free Tyrode's buffer, pH 7.3, containing 0.1% bovine serum albumin. See, Marguerie et al., J. Biol. Chem. 225:154-161 (1980). […]
# The cell-bound ligand was recovered by centrifugation through 20% sucrose, and the cells were extracted in PBS containing 1% Nonidet P40 and 10 mM N-ethylmaleimide (Sigma). […] The cross-linked samples were analyzed by electrophoresis (SDS-PAGE) on polyacrylamide vertical slab gels in the buffer system of Laemmli, Nature, […] (1970). […]
# alpha subunit (GPIIb) = molecular target: T2, alpha subunit (GPIIb) (Homo sapiens, UniProt P05106+P08514); test: as above; type: binding; details: thrombin-stimulated platelets, 20 μM peptide, 45 min at 22° C., BS3 0.2 mM
# T2 construct: The radiolabeled peptide was then added to 6×10^8 cells/ml stimulated or nonstimulated platelets; endogenous in cells; host or cells: human platelets (thrombin-stimulated), gel-filtered from fresh blood
sequence,measurement,setting,value
"KYGRRGDS [Fn-7, RGD-peptide with a lysine to facilitate crosslinking and a tyrosine for radioiodination]",crosslinking of 125I-Fn-7 to the beta subunit (GPIIIa),beta subunit (GPIIIa),predominance
same,crosslinking of 125I-Fn-7 to the alpha subunit (GPIIb),alpha subunit (GPIIb),more minor crosslinking
